Data: article PMC12257531, “Chaperone-Mediated Regulation of Tau Phase Separation, Fibrillation, and Toxicity” (Journal of the American Chemical Society, 2025)

Biological target: Tau441 (recombinant full-length Tau protein), monomeric (UniProt P10636-8 1-441)
Test: cell-based or functional assay

Sequence of Tau441 (recombinant full-length Tau protein), monomeric (P10636 other isoform, or with tags, fused parts or gaps): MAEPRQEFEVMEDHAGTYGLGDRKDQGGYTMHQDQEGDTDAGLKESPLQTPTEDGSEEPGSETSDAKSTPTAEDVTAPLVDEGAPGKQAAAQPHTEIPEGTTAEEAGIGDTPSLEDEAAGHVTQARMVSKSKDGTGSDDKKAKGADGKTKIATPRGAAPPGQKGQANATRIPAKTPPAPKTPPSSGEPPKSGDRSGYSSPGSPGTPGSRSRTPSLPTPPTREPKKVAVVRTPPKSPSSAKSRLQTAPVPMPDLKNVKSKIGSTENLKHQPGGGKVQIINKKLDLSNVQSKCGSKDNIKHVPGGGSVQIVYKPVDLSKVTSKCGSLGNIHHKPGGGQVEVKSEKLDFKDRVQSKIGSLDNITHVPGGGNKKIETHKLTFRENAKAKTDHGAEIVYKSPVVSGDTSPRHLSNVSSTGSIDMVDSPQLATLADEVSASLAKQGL

turbidity (absorbance at 350 nm) of 20 uM Tau441 with 8% PEG8000 and sub- to superstoichiometric Bri2 BRICHOS, relative to Tau441 droplets alone: 2 fold
B1: Bri2 BRICHOS domain R221E (residues 113-231 of Bri2), oligomeric fraction (domain or fragment, human)
chain: GSQTIEENIKIFEEEEVEFISVPVPEFADSDPANIVHDFNKKLTAYLDLNLDKCYVIPLNTSIVMPPRNLLELLINIKAGTYLPQSYLIHEHMVITDRIENIDHLGFFIYELCHDKETYKL
